Data reported in the supplement of paper PMC9170038.

Tested on: MS2 coat protein
Assay: apparent KD of MS2 coat protein; designed switch direction (-1 OFF switch, 1 ON switch): -1; higher = weaker reporter binding
Method in brief: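 For each design, the apparent KD is the median over clusters of curves fitted to normalised cluster fluorescence. Clusters held RNA switches with common flanks, transcribed on Illumina chips by stalled E. coli RNA polymerase. These were titrated with SNAP-549-labelled MS2 coat protein, doubling from 0.7 or 1.5 nM to 3 µM, without input, with 200 uM small-molecule ligand, or with an oligonucleotide input.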

[1] = Eterna round: R95, input ligand: FMN 200 uM
[2] = Eterna round: R95, input ligand: microRNA oligo, concentration not stated
[3] = Eterna round: R95, input ligand: none

Sequence | apparent KD of MS2 coat protein [2] [nM] | apparent KD of MS2 coat protein (input ligand: FMN 200 uM) [nM] | apparent KD of MS2 coat protein (input ligand: none) [nM] | other results
UGUACGAUGCGUGCUGACAUGCGUCGUGCAGCAGGUGAUACAUGAGGAUCACCCAUGUCCUCAUUUGCUCGUCUUGA [Mat - Sensor v3 - Turn-off var 2 - D20] (puzzle: Sensor v3, turn-off variant 2) | 475 |  |  | apparent KD of MS2 coat protein [1]: 68.5 nM; apparent KD of MS2 coat protein [3]: 75.2 nM
UAGAUGGGAGGAUAUACAUAGAUACAGAUUCGUGUAGUGCUACAUGAGGAUCACCCAUGUAGAAGGCCCGUCUU [JL-ex2-2.21 Mayanne mod] (puzzle: Exclusion 2) | 15.2 |  |  | 
ACCUAAAAGCUAGGAUAUACAUGAGGAUCACCCAUGUACACAGGUAGACUAACCUGUGGACUCAUGUAGAAGGAGCAUGACAAA [Erongebe] (Eterna round: R96, puzzle: Exclusion NG 2) |  | 111 | 363 | apparent KD of MS2 coat protein (input ligand: microRNA oligo, concentration not stated): 240 nM
UUUUAACAUGAGGAUCACCCAUGUGAGGAUAUCGAAAUUUAUAUUUAUAUUAAUUUUACGAGAAGGCACAUUUU [JMF 90] (puzzle: Exclusion 1) | 120 |  |  | 
AAAUUUGGAGGAUAUUCAUUGGGAAACAUGAGGAUCACCCAUGUGAUAUAAGGGAAAUCCGGAGAAGGCUAAAUUU [-17.1, -14.1 kcal, 37% A] (Eterna round: R97, puzzle: Exclusion 5) |  | 30.7 | 28.2 | 
CGUAGAUUAGGAUAUUGCUCGCUGGACAUGAGGAUCACCCAUGUGCGUGUCGUGCGAAGUCAAGAAGGAGUGUGUG [Eternabot (L2) Solution 40] (Eterna round: R97, puzzle: Exclusion 5) |  | 35.6 | 18 | 
AGCCUACAUGAGGAUCACCCAUGUCAGGAUAUCUCGCGGCGUGUCAAGUUCACACUGCAGAGAAGGGACUCGGG [Edsoriri] (puzzle: Exclusion 1) | 51.4 |  |  | 
UUAUUACGAGGAUAUCGUUUUUAUCACAUGAGGAUCACCCAUGUAAUUUAUGUUUCGUUUCGAGAAGGCGUUUGUU [JR_E5_Sub067] (puzzle: Exclusion 5) | 23.3 |  |  | 
CAGUACUGAGGAUAUACAUGAGGAUCACCCAUGUUCUUCGGCUAGGAUACUAGCAAAGGUAGAAGGCAGUACUG [Mat - Exclusion 3 - Eli Mod - D27] (Eterna round: R97, puzzle: Exclusion 3) |  | 144 | 18.7 | 
GAUUAUGCGAGCUUUAGGGACAUGAGGAUCACCCAUGUUCGUCUUAUUAGUCUAGAUACACUGACAUACCUAAAUCU [JMF 57] (puzzle: Sensor v3, turn-off variant 1) | 18.2 |  |  | apparent KD of MS2 coat protein [1]: 14.5 nM; apparent KD of MS2 coat protein [3]: 13.8 nM
CGUGCGUAUGUGAGGAUAUGCUGGUCCUUGGAUCGGCAGAAGGCACAUGAGGAUCACCCAUGUGGUGUCGUACA [salish99_Bmod_ex4_088] (puzzle: Brourd's mod of Exclusion 4) | 215 |  |  | 
GGAUCUAAGGUGAGGAUAUAGACUCCCAAAUGGAUCUAGAAGGCACUUGAGGAUCACCCAAGUAGUCUAGGGAA [Orered] (Eterna round: R97, puzzle: Brourd's mod of Exclusion 4) |  | 33.6 | 16.9 | 
UAGAAUCGAGGAUAUACAUGAGGAUCACCCAUGUGUGGCCAUACUGUGUGGUCGUCAGGUAGAAGGCGAUUAUA [Exclusion 3 - Mod of Jieux's Gilly Gone Silly 23] (puzzle: Exclusion 3) | 45.4 |  |  | 
UUUAGUAUCUAGGAUAUCUAGUACAUAGUAUCUAGAGAAGGAGAUACAUGAGGAUCACCCAUGUUCUGUGUUCU [Exclusion 6 - 1:a] (puzzle: Exclusion 6) | 22.4 |  |  | 
AGUGUGAGGCAGGAUAUGCAAUAUGUAAGUAAUGCAGAAGGGUCUACAUGAGGAUCACCCAUGUGUGCGGUUGA [Ex6 #10] (Eterna round: R97, puzzle: Exclusion 6) |  | 282 | 192 | 
